{"source": "paper PMC7697625", "about": "(Biomolecules, 2020)", "proteins": {"B1": {"name": "TNIP1 AHD1-UBAN construct (TNIP1^417-509) (domain or fragment, human, UniProt Q15025 417-509, looked up)", "chain": "QRLNKALEEALSIQTPPSSPPTAFGSPEGAGALLRKQELVTQNELLKQQVKIFEEDFQRERSDRERMNEEKEELKKQVEKLQAQVTLSNAQLK", "notes": "pET28a construct; For NMR the protein was 15N-labelled (minimal medium with 15NH4Cl); also called TNIP1 AHD1-UBAN region; AHD1-UBAN domain; source: E. coli BL-21(DE3) Rosetta 2, heat lysis, purified (HisTrap HP, Superdex 75); not shown: His6, C-terminal, kept"}}, "biological_target": "the molecule itself", "assay": "AUC; sedimentation velocity, 20 uM (0.25 mg/mL), 20 mM sodium phosphate pH 8.0, 200 mM NaCl, 20 C, 50,000 RPM; monomer and dimer", "data": [{"protein": "B1", "values": [{"measurement": "stoichiometry N", "value": 2}]}]}
